From patent US20190134153A1, “IMMUNOMODULATORY EFFECT OF INHALED KINASE INHIBITOR PEPTIDES IN LUNG” (MOERAE MATRIX, INC., priority 2017, published 2019)

Legend:
Assay in all cases: Kinase Profiling Assay
Assay type in all cases: biochemical
Details in all cases: 100 μM
BrSK1(h) = target: T1, BrSK1(h) (Homo sapiens, UniProt Q8TDC3)
T1 sequence (Q8TDC3 1-778): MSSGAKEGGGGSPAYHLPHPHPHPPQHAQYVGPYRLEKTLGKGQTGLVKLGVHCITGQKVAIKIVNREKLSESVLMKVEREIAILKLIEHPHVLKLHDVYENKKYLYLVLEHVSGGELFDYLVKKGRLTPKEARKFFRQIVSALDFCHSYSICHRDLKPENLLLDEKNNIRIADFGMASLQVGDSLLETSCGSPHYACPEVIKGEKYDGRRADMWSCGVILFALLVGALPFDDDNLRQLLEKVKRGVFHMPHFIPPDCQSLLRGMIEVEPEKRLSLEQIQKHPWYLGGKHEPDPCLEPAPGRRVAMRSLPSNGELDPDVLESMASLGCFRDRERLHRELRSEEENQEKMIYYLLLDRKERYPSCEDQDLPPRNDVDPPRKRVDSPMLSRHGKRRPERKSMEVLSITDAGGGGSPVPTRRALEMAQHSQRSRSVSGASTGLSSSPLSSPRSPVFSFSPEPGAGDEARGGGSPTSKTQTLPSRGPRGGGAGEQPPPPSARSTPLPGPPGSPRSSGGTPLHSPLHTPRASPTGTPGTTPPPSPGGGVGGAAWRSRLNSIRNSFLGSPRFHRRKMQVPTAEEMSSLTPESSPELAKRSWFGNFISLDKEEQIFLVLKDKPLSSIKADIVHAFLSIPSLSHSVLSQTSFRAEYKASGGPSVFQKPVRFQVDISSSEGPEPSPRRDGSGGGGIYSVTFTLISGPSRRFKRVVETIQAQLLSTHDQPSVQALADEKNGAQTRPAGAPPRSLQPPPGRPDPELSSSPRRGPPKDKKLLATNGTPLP

CDK6/cyclinD3(h) = CDK6/cyclinD3(h) (Homo sapiens, UniProt Q00534)
CDK6/cyclinD3(h), sequence (Q00534 whole entry): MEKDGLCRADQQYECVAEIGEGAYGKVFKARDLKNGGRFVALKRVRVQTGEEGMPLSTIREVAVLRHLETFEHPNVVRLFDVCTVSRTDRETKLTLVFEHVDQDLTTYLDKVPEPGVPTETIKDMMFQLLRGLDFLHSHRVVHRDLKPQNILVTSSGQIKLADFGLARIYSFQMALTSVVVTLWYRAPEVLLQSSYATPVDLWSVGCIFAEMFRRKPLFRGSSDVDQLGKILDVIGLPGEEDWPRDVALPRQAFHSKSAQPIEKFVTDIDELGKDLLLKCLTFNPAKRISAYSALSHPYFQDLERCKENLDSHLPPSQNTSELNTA
CDK6/cyclinD3(h), sequence (P30281 whole entry partner): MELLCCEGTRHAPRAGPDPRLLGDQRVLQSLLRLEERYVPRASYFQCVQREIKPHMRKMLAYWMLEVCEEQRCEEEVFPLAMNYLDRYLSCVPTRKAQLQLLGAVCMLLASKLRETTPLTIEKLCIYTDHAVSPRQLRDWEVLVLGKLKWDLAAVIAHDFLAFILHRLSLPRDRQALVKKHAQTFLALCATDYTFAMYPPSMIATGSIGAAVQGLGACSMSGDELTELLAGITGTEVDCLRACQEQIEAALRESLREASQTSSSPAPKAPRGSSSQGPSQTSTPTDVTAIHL

EphB3(h) = target: T2, EphB3(h) (Homo sapiens, UniProt P54753)
T2 sequence (P54753 34-998): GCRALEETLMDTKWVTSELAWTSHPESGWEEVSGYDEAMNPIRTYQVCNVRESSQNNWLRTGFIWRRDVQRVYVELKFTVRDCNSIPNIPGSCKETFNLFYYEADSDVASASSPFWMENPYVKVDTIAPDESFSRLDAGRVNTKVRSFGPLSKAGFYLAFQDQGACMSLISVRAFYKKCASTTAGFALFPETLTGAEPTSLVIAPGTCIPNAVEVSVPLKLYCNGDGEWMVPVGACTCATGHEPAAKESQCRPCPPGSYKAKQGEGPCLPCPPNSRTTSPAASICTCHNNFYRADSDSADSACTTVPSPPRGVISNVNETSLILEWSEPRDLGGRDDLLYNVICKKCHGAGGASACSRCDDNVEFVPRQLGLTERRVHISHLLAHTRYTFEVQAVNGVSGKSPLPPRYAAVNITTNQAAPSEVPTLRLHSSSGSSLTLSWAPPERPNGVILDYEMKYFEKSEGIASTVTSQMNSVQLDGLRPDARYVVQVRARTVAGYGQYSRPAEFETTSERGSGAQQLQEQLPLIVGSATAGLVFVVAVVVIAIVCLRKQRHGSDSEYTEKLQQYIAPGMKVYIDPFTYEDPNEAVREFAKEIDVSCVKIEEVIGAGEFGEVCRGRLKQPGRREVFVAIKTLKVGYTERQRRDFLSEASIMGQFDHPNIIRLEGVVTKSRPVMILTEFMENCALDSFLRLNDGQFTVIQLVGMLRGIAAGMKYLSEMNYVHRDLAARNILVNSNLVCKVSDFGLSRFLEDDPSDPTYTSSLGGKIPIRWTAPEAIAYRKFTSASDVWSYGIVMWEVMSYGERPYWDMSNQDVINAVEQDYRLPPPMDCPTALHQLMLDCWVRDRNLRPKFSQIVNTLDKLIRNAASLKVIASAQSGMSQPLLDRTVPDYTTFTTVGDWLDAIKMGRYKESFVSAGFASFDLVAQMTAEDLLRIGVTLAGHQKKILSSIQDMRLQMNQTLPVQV

Itk(h) = target: T3, Itk(h) (Homo sapiens, UniProt Q08881)
T3 sequence (Q08881 1-620): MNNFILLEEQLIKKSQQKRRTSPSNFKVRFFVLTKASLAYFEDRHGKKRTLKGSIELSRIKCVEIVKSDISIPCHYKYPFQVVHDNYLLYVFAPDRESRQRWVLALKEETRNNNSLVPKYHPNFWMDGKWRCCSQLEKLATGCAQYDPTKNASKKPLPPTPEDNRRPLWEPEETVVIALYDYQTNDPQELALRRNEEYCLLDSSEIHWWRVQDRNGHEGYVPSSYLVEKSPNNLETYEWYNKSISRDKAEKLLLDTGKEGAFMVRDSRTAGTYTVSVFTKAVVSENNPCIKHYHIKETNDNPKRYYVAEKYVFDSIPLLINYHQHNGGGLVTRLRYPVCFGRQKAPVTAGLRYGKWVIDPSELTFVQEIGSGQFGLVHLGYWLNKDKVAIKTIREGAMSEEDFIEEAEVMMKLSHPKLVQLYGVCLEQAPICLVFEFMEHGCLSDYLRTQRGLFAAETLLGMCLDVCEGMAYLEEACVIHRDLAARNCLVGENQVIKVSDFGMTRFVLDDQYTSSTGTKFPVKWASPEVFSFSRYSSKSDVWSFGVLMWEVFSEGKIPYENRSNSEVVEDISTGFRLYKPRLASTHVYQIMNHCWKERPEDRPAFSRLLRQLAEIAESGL

Ron(h) = Ron(h) (Homo sapiens, UniProt Q04912)
SRPK2(h) = SRPK2(h) (Homo sapiens, UniProt P78362)
SRPK2(h), sequence (P78362 whole entry): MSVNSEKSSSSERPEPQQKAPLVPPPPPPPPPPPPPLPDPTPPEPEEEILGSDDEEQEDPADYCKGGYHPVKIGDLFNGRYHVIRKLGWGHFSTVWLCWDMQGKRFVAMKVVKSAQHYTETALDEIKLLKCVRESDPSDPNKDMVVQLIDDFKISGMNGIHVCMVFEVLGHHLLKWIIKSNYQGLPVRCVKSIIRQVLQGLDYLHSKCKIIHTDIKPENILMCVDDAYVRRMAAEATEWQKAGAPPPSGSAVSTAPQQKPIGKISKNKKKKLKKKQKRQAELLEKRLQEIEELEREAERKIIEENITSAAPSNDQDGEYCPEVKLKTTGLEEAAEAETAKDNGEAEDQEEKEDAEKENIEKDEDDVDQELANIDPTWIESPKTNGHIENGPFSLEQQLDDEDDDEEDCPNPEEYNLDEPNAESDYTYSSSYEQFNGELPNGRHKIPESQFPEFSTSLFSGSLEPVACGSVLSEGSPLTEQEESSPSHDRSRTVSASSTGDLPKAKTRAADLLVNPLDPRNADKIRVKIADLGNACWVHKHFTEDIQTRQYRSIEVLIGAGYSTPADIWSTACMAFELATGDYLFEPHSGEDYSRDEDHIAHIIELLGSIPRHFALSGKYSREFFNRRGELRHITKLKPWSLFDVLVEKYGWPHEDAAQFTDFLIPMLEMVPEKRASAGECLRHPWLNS

Sequence | % activity (BrSK1(h)) | % activity (CDK6/cyclinD3(h)) | % activity (EphB3(h)) | % activity (Itk(h)) | % activity (Ron(h)) | % activity (SRPK2(h))
FAKLAARLYRKALARQLGVAA [MMI-0300] | 67% | 86% | 62% | 77% | 93% | –
KAFAKLAARLYRKALARQLGVAA [MMI-0400] | 76% | 85% | 47% | 63% | 79% | 97%
YARAAARQARAKALNRQLGVA [MMI-0200] | 93% | 100% | 128% | 98% | 120% | 100%
HRRIKAWLKKIKALARQLGVAA [MMI-0500] | 72% | 23% | 79% | 7% | 46% | 80%
